Reference: the supplement of paper PMC7877785
± gives the uncertainty stated by the source.

Test: self-splicing fitness, log relative to wild type (ln ratio); higher = more splicing; Tetrahymena group I intron in knt gene, E. coli kanamycin selection, DiMSum; sequences stand for … in CUCUCU…GGAGGGAAAAGUUAUCAGGCAUGCACCUGGUAGCUAGUCUUUAAACCAAUAGAUUGCAUCGGUUUAAAAGGCAAGACCGUCAAAUUGCGGGAAAGGGGUCAACAGCCGUUCAGUACCAAGUCUCAGGGGAAACUUUGAGAUGGCCUUGCAAAGGGUAUGGUAAUAAGCUGACGGACAUGGUCCUAACCACGCAGCCAAGUCCUAAGUCAACAGAUCUUCUGUUGAUAUGGAUGCAGUUCACAGACUAAAUGUCGGUCGGGGAAGAUGUAUUCUUCUCAUAAGAUAUAGUCGGACCUCUCCUUAAUGGGAGCUAGCGGAUGAAGUGAUGCAACACUGGAGCCGCUGGGAACUAAUUUGUAUGCGAAAGUAUAUUGAUUAGUUUUGGAGUACUCGUGGUCG
How it was run: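 A randomised library covering all eight P1ex-region intron nucleotides was built with the intron in the knt kanamycin-resistance gene on pET-22b(+) and held in E. coli BL21(DE3). Cells were grown overnight at 37°C or 30°C on LB agar, with or without 25 μg/mL kanamycin, plus 100 μg/mL carbenicillin, 50 μM IPTG and 0.2% rhamnose, and pooled colonies were amplicon-sequenced on an Illumina HiSeq 2500. DiMSum fitness is the error-weighted combination of wild-type-normalised replicate fold changes, kanamycin versus none.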

Sequence	self-splicing fitness (ln) (30 °C)	self-splicing fitness (ln) (37 °C)
UAUGAGCAAUAUUACGUGCA	-2.09 ± 0.13	-2.32 ± 0.15
ACAGAGCAAUAUUACGCACC	-3.6 ± 0.47	-2.04 ± 0.38
GGCCAGCAAUAUUACGAUUU	-1.9 ± 0.12	-0.659 ± 0.13
UCAGAGCAAUAUUACGGGUG	-3.2 ± 0.2	-1.46 ± 0.14
UCAAAGCAAUAUUACGGGAG	-4.12 ± 0.3	-2.5 ± 0.19
CAUGAGCAAUAUUACGCUUA	-3.77 ± 0.43	-2.19 ± 0.25
UACCAGCAAUAUUACGGUGG	-3.17 ± 0.11	-1.87 ± 0.087
AAUUAGCAAUAUUACGUGAC	-2.05 ± 0.21	-2.73 ± 0.23
ACCGAGCAAUAUUACGGACG	-2.21 ± 0.15	0.0411 ± 0.13
UCGAAGCAAUAUUACGCCGU	-0.599 ± 0.12	-0.739 ± 0.12
UGUCAGCAAUAUUACGGCGU	-1.95 ± 0.15	-0.728 ± 0.13
ACUUAGCAAUAUUACGGCAC	-1.79 ± 0.11	-1.07 ± 0.14
GAGGAGCAAUAUUACGAUAU	-1.34 ± 0.26	-2.53 ± 0.45
UAUUAGCAAUAUUACGUUUC	-3.79 ± 0.28	-2.98 ± 0.34
GAGAAGCAAUAUUACGGGGA	-2.34 ± 0.22	-2.67 ± 0.28
UAAAAGCAAUAUUACGUCAC	-3 ± 0.2	-2.25 ± 0.28
AGUUAGCAAUAUUACGUAAC	-4.54 ± 0.46	-2.21 ± 0.24
CGCAAGCAAUAUUACGUCUU	-4.05 ± 0.26	-3.12 ± 0.22
UUGAAGCAAUAUUACGGAUA	-0.345 ± 0.08	-0.413 ± 0.1
AUAGAGCAAUAUUACGCCGC	–	-2.75 ± 0.44
CUGCAGCAAUAUUACGAGGC	-2.65 ± 0.17	-1.97 ± 0.22
GGCUAGCAAUAUUACGCGAG	-4.46 ± 0.39	-2.74 ± 0.28
AGUGAGCAAUAUUACGUGAA	-3.3 ± 0.36	-2.91 ± 0.19
AAAGAGCAAUAUUACGGCGA	-1.65 ± 0.22	-1.26 ± 0.3
CAUAAGCAAUAUUACGGGAG	-1.96 ± 0.097	-1.14 ± 0.095

Sequence	self-splicing fitness (ln) (30 °C)	self-splicing fitness (ln) (37 °C)
UUGAAGCAAUAUUACGAUCU	-1.3 ± 0.13	-0.67 ± 0.14
GGUCAGCAAUAUUACGUCAA	-0.511 ± 0.071	0.0808 ± 0.082
UUGUAGCAAUAUUACGUCUG	-0.639 ± 0.067	0.19 ± 0.086
UGCGAGCAAUAUUACGCUAU	–	-2.46 ± 0.38
AGACAGCAAUAUUACGCCAA	-2.35 ± 0.15	-1.1 ± 0.12
UCACAGCAAUAUUACGCUUA	-1.66 ± 0.15	-0.902 ± 0.12
GUAUAGCAAUAUUACGGGGA	-2.52 ± 0.22	-2.83 ± 0.38
CUAAAGCAAUAUUACGCUGU	-3.72 ± 0.29	-2.39 ± 0.21
UAGGAGCAAUAUUACGUGCA	-1.88 ± 0.17	-1.41 ± 0.19
GGGGAGCAAUAUUACGGUCA	–	-0.676 ± 0.18
CGACAGCAAUAUUACGUCCC	-0.895 ± 0.47	–
AAUUAGCAAUAUUACGGACA	-0.45 ± 0.19	-1.28 ± 0.18
GCUCAGCAAUAUUACGCUUA	-1.4 ± 0.054	-0.165 ± 0.06
UUAAAGCAAUAUUACGCUCG	0.194 ± 0.12	0.654 ± 0.15
AAGCAGCAAUAUUACGGGCG	-0.645 ± 0.065	-0.638 ± 0.099
ACCCAGCAAUAUUACGCUGA	-1.63 ± 0.087	-0.241 ± 0.092
UUUUAGCAAUAUUACGUAGU	-1.9 ± 0.37	–
CUUUAGCAAUAUUACGAUUC	-3.16 ± 0.2	-2.6 ± 0.33
CCGGAGCAAUAUUACGCCAU	–	-2.18 ± 0.35
CAUCAGCAAUAUUACGCGCA	-1.21 ± 0.1	-0.493 ± 0.12
AUGAAGCAAUAUUACGCCUG	-0.59 ± 0.092	-0.209 ± 0.11
UCGCAGCAAUAUUACGUGUG	-2.24 ± 0.074	-2.33 ± 0.12
CCUAAGCAAUAUUACGGAUU	-4.68 ± 0.28	-2.46 ± 0.23
CCUGAGCAAUAUUACGUAAU	-2.24 ± 0.2	-2.6 ± 0.25
CAGCAGCAAUAUUACGUCUA	-0.137 ± 0.045	0.377 ± 0.06

Sequence	self-splicing fitness (ln) (30 °C)	self-splicing fitness (ln) (37 °C)
UGUAAGCAAUAUUACGUCAG	-1.14 ± 0.093	-0.0311 ± 0.11
UUAUAGCAAUAUUACGGAAU	-3.67 ± 0.36	–
GUUAAGCAAUAUUACGGAAC	–	-1.43 ± 0.34
AGAAAGCAAUAUUACGUAAU	-1.6 ± 0.087	-1.27 ± 0.12
UAAGAGCAAUAUUACGUACA	-2.95 ± 0.37	-1.59 ± 0.4
GGCCAGCAAUAUUACGUCUC	-1.1 ± 0.089	-0.447 ± 0.12
UAUUAGCAAUAUUACGGGUA	-0.742 ± 0.12	-0.599 ± 0.11
AUCCAGCAAUAUUACGACAU	0.00336 ± 0.011	0.408 ± 0.032
UGGGAGCAAUAUUACGGGUU	–	-2.02 ± 0.47
CUACAGCAAUAUUACGUGGC	-3.68 ± 0.29	-2.44 ± 0.32
UUCCAGCAAUAUUACGACAU	-2.874 ± 0.018	-1.61 ± 0.035
AAGUAGCAAUAUUACGUUAC	-3.59 ± 0.3	-2.71 ± 0.29
GCGUAGCAAUAUUACGUACG	-3.93 ± 0.18	-2.88 ± 0.17
CUCAAGCAAUAUUACGCAUC	-3.63 ± 0.23	-2.3 ± 0.25
CGCUAGCAAUAUUACGGCUC	-1.15 ± 0.16	-0.2 ± 0.19
UUUGAGCAAUAUUACGGGGU	–	-2.11 ± 0.26
UAGUAGCAAUAUUACGGAAG	–	-1.83 ± 0.23
GGCAAGCAAUAUUACGCAGC	–	-2.27 ± 0.28
AAAUAGCAAUAUUACGCCAC	-3.22 ± 0.36	-2.18 ± 0.5
CUGGAGCAAUAUUACGGUCA	-2.54 ± 0.47	–
GACGAGCAAUAUUACGCCCU	-2.99 ± 0.25	-1.47 ± 0.19
UCCGAGCAAUAUUACGGCAC	-2.01 ± 0.18	-2.76 ± 0.24
AUGUAGCAAUAUUACGACUC	0.285 ± 0.12	0.585 ± 0.18
UAGUAGCAAUAUUACGGGGG	-4.33 ± 0.46	-2.8 ± 0.36
GAUUAGCAAUAUUACGGGCC	-1.66 ± 0.32	-2.01 ± 0.47

Sequence	self-splicing fitness (ln) (30 °C)	self-splicing fitness (ln) (37 °C)
UUUGAGCAAUAUUACGGCGC	-2.21 ± 0.35	–
UAUAAGCAAUAUUACGACGA	-0.51 ± 0.14	-1.36 ± 0.15
CAACAGCAAUAUUACGCAUG	-2.41 ± 0.11	-1.27 ± 0.14
AUUUAGCAAUAUUACGAAUC	-4.21 ± 0.31	-3.21 ± 0.35
AUCAAGCAAUAUUACGUAUG	-4.19 ± 0.24	-1.56 ± 0.14
CGACAGCAAUAUUACGUAUU	-3.09 ± 0.14	-2.53 ± 0.16
ACUCAGCAAUAUUACGUACU	-0.824 ± 0.056	-0.927 ± 0.063
GUCUAGCAAUAUUACGACGU	-0.253 ± 0.15	0.696 ± 0.17
GUAUAGCAAUAUUACGGGCA	-1.34 ± 0.24	-1.35 ± 0.25
AGUCAGCAAUAUUACGUGGU	-1.26 ± 0.11	-2.37 ± 0.19
GGUAAGCAAUAUUACGAUAG	-3.14 ± 0.2	-2.14 ± 0.24
GGAUAGCAAUAUUACGAGUA	-2.54 ± 0.48	-1.14 ± 0.16
GAUUAGCAAUAUUACGUAAG	-2.02 ± 0.18	-0.715 ± 0.29
UCGCAGCAAUAUUACGUGAA	-1.32 ± 0.078	-0.713 ± 0.086
CUCGAGCAAUAUUACGAUCG	–	-1.71 ± 0.28
CUUAAGCAAUAUUACGUAGG	-2.58 ± 0.1	-1.35 ± 0.14
CGUAAGCAAUAUUACGUUCA	-1.64 ± 0.14	-0.74 ± 0.13
UCUCAGCAAUAUUACGCACU	-0.801 ± 0.13	-0.465 ± 0.14
CUGUAGCAAUAUUACGAUGU	-5.35 ± 0.11	-5.09 ± 0.16
UAAGAGCAAUAUUACGGGUC	–	-1.7 ± 0.41
UCUUAGCAAUAUUACGCACC	–	-1.21 ± 0.37
UUCCAGCAAUAUUACGCUCU	-3.04 ± 0.17	-1.26 ± 0.14
GUUUAGCAAUAUUACGACGA	-0.271 ± 0.17	-0.957 ± 0.24
CGUCAGCAAUAUUACGUAUU	-2.83 ± 0.13	-1.84 ± 0.14
GAUGAGCAAUAUUACGUCUA	-1.51 ± 0.31	-1.2 ± 0.25
